The target of this series is T1, DDX56 (His-DDX56) (human, UniProt Q9NY93 1-547).
T1 sequence: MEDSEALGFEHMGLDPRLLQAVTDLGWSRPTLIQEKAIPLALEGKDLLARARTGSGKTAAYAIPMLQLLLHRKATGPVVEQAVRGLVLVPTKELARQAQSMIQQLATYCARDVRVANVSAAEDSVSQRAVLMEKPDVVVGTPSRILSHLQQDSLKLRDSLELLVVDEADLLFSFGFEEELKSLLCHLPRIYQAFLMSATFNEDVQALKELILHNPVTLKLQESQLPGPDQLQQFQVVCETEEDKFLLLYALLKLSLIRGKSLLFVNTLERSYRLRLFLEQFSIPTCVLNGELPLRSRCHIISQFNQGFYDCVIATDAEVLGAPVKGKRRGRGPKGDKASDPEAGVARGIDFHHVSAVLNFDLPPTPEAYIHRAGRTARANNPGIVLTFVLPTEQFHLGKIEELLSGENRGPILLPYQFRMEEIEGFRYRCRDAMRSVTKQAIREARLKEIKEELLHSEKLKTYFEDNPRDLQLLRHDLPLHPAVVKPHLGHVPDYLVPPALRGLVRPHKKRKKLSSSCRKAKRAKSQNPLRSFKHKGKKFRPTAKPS
The series is described as follows: EMSA; 5 mM Mg2+; poly(dI-dC); supershifted by DDX56 antibody; LightShift EMSA kit, 20 uL: 2 uL 10x binding buffer, 1 uL 50% glycerol, 1 uL 100 mM MgCl2, 1 ug/uL poly(dI-dC), 1 uL 1% NP-40, 2 ug protein; supershift at room. The following applies: protein: commercial; tags: N-terminal His; label: 5' biotin; blunt.

B1: MIST1 promoter -160 to -117 (dsDNA)
DNA 1: GCCACCTGGTCCGGGAGCCCCAGGCGCCGGCCTCCCGCCCGCCC
DNA 2: GGGCGGGCGGGAGGCCGGCGCCTGGGGCTCCCGGACCAGGTGGC
As for B1, the binding result is reported as “binds”.
